Here are results for 3 molecules from US20250277048A1 (Regeneron, published 2025).

The target in assay [1] is T1, human CD40 extracellular domain expressed with a C-terminal myc-myc-hexahistidine tag (human).
T1 construct: also called hCD40-MMH; hCD40-mmH
Briefly: SPR Biacore 4000, mAb captured, 25C. On the procedure: (§1) The equilibrium dissociation constants (KD) for anti-CD40 bivalent and bispecific monoclonal antibodies (mAbs) were determined using a real-time surface plasmon resonance (SPR)-based Biacore 4000 biosensor. All binding studies were performed in 10 mM HEPES, 150 mM NaCl, 3 mM EDTA, and 0.05% v/v surfactant Tween-20, pH 7.4 (HBS-ET) running buffer at 25° C. and 37° C. The Biacore CM5 sensor surface was first derivatized by amine coupling with a monoclonal mouse anti-human Fc antibody (REGN2567) to capture anti-CD40 bivalent parental and anti-CD40×CD40 bispecific antibodies. Different concentrations of CD40 reagents, human CD40 extracellular domain expressed with a C-terminal myc-myc-hexahistidine tag (SEQ ID NO: 1114) (“hCD40-MMH”; REGN3094; SEQ ID NO: 53), monkey CD40 extracellular domain expressed with a C-terminal myc-myc-hexahistidine tag (SEQ ID NO: 1114) (“mfCD40-MMH”; REGN3097; SEQ ID NO: 54), and mouse CD40 extracellular domain expressed with a C-terminal myc-myc-hexahistidine tag (SEQ ID NO: 1114) (“mCD40-MMH”; REGN3098; SEQ ID NO: 55), at concentrations ranging from 3.7 nM to 100 nM or 3.3 nM to 90 nM in a series of 3-fold dilutions prepared in HBS-ET running buffer were injected at a flow rate of 30 μL/min for 4 minutes or 50 μL/min for 5 minutes. The dissociation of different CD40 reagents bound to anti-CD40 bivalent parental and anti-CD40×CD40 bispecific antibodies was monitored for 10 minutes in HBS-ET running buffer. At the end of each cycle, the anti-CD40 bivalent parental and anti-CD40×CD40 bispecific antibodies capture surface was regenerated using a 12 sec injection of 20 mM H₃PO₄.
(§2) The association rate (ka) and dissociation rate (kd) were determined by fitting the real-time binding sensorgrams to a 1:1 binding model with mass transport limitation using Scrubber 2.0c curve-fitting software. Binding dissociation equilibrium constant (KD) and dissociative half-life (t_{1/2}) were calculated from the kinetic rates as: KD(M)=kd/kₐ, and t_{1/2} (min)=[ln(2)/(60*kd)].

The target of assay [2] is T1, human CD40 extracellular domain …. The assay is described as follows: SPR Biacore 4000, mAb captured, 37C. The procedure:
as §1, §2

Assay [3] concerns the target T2, human CD40 (hCD40) expressed on cells (human, UniProt P25942 21-277). Briefly: cell-based or functional assay.
Assay [4] addresses T2, human CD40 (hCD40) expressed on cells. The assay is described as follows: flow cytometry, HEK293/D9/hCD40 cells. The procedure:
(§3) Cells were washed with 2% FBS (w/v) in 1×PBS (flow cytometry staining buffer) by centrifugation with benchtop Centrifuge 5810R (Eppendorf®, Hamburg, Germany). Cells were incubated for 30 minutes at 4° C. with serial dilutions of following antibodies ranging from 1.7 pM to 100 nM in flow cytometry staining buffer (1) anti-CD40×CD40 bispecific antibodies, or (2) parental anti-CD40 antibodies (bivalent antibodies comprising 2 fragment antigen-binding [Fab] arms identical to one of the two anti-CD40 Fab of bispecific anti-CD40×CD40 antibodies), or (3) anti-CD40×Irrelevant antibodies (bivalent antibodies that incorporate one Fab arm identical to one of anti-CD40 Fab of anti-CD40×CD40 antibodies and another Fab arm specific to an irrelevant antigen, i.e. birch pollen main allergen Bet v1), or (4) human IgG4 isotype control antibodies with Fc mutation. After washing, cell bound antibodies were detected with 2.5 μg/ml Allophycocyanin (APC)-conjugated goat anti-human IgG antibody specific for the Fcγ fragment (Jackson Immunoresearch, West Grove, PA) for 30 minutes at 4° C. Cells were washed and subsequently fixed with 50% solution of Cytofix™ Fixation Buffer (BD, Franklin Lakes, NJ) in flow cytometry staining buffer for 20 minutes at room temperature. Cells were washed and resuspended in flow cytometry staining buffer and stored at 4° C. for downstream flow cytometry analysis.
(§4) Acquisition of fluorescence signals were recorded on the ZE5 Cell Analyzer (Bio-Rad, Hercules, CA) according to the manufacturer's recommended procedure and flow cytometry data analysis was performed using the open-source R packages flowCore, flowStats, flowDensity, ggCyto, and flowAI. Multiplexed samples were deconvoluted and individual cell populations were identified based on their unique CellTrace™ fluorescence signature. APC Median Fluorescence intensity (MFI) was recorded to indicate the binding intensity of each antibody over a range of concentrations. Antibodies with MFI greater than 1500 at the highest tested concentration (100 nM) were classified as specific binders. In addition, direct binding signals (APC MFI) were analyzed as a function of the antibody concentration and data were fitted with a sigmoidal (four-parameter logistic) dose-response model using GraphPad Prism™ software.

Assay [5] shares this target. The assay is described as follows: cell-based or functional assay. The source holds these as a separate data set.
Assay [6] concerns the target T3, Macaca fascicularis CD40 (mfCD40) expressed on HEK293/D9/mfCD40 cells (Macaca fascicularis, UniProt G7PG38 21-278).
T3 construct: whole, on cells; also called monkey CD40
Briefly: flow cytometry, HEK293/D9/mfCD40 cells. On the procedure:
as §3, §4

Assay [7] has as its target T4, mouse CD40 extracellular domain expressed with a C-terminal myc-myc-hexahistidine tag (mouse).
T4 construct: also called mCD40-MMH; REGN3098
T4 chain: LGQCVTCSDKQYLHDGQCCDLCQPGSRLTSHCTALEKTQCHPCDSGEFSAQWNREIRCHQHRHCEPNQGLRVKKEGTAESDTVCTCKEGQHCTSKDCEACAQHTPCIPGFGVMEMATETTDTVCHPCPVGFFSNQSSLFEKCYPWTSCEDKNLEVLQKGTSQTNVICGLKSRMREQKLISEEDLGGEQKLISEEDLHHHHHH
The assay is described as follows: SPR Biacore 4000, mAb captured, 37C. The procedure: as §1, §2

T2 sequence (P25942 21-277): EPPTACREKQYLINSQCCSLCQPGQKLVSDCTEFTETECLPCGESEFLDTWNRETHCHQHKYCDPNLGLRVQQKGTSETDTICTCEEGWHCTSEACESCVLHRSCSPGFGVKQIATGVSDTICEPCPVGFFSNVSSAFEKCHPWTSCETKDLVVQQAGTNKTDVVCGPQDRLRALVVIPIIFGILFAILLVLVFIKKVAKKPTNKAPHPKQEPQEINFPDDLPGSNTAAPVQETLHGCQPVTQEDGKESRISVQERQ

B1: REGN16431 (bispecific antibody, human IgG4 S228P, kappa)
heavy 1: QLQLQESGPGLVRPSETLSLTCSVSGASMNTNNYYWGWIRQPPGKGLEWIGSGYYNGNTYYNPSLKSRVTISVDTSKNQFSLKLNSVTAADTAVYYCARQTPPRIIGSPNIWGQGTMVTVSSASTKGPSVFPLAPCSRSTSESTAALGCLVKDYFPEPVTVSWNSGALTSGVHTFPAVLQSSGLYSLSSVVTVPSSSLGTKTYTCNVDHKPSNTKVDKRVESKYGPPCPPCPAPPVAGPSVFLFPPKPKDTLMISRTPEVTCVVVDVSQEDPEVQFNWYVDGVEVHNAKTKPREEQFNSTYRVVSVLTVLHQDWLNGKEYKCKVSNKGLPSSIEKTISKAKGQPREPQVYTLPPSQEEMTKNQVSLTCLVKGFYPSDIAVEWESNGQPENNYKTTPPVLDSDGSFFLYSRLTVDKSRWQEGNVFSCSVMHEALHNHYTQKSLSLSLGK
heavy 2: EVQLVESGGGLVQPGGSLRLSCAASGFTFGSYGMAWVRQAPGKGLEWVSAISGSGDYTNYADSVKRRFTISRDNSKNTLYLQMSSLRAEDTAVYYCAKEKTGTTGYLYSGMDVWGQGTTVTVSSASTKGPSVFPLAPCSRSTSESTAALGCLVKDYFPEPVTVSWNSGALTSGVHTFPAVLQSSGLYSLSSVVTVPSSSLGTKTYTCNVDHKPSNTKVDKRVESKYGPPCPPCPAPPVAGPSVFLFPPKPKDTLMISRTPEVTCVVVDVSQEDPEVQFNWYVDGVEVHNAKTKPREEQFNSTYRVVSVLTVLHQDWLNGKEYKCKVSNKGLPSSIEKTISKAKGQPREPQVYTLPPSQEEMTKNQVSLTCLVKGFYPSDIAVEWESNGQPENNYKTTPPVLDSDGSFFLYSRLTVDKSRWQEGNVFSCSVMHEALHNRFTQKSLSLSPGK
light: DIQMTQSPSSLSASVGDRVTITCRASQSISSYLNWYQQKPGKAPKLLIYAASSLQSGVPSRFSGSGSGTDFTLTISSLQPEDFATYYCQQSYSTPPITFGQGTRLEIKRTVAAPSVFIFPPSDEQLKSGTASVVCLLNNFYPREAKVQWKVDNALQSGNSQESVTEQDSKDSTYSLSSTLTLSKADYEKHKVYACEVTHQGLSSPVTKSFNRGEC
notes: D1 arm from 21519P2, D2 arm from 21520P2, common light chain; also called CD40xCD40 (21519 x 21520)
As to B1, in assay [1], the “100 nM Ag Bound” value is 61.2 RU, the Kd is 0.101 nM, the off-rate (koff) amounted to 0.000149 s⁻¹ and the kon was 1.47e+06 M⁻¹ s⁻¹. The t1/2 in assay [1] is 1.29 h. For the same molecule, in assay [2], the “100 nM Ag Bound” value amounted to 61.2 RU; the affinity, expressed as Kd, was 0.101 nM; the koff worked out at 0.000149 s⁻¹; the kon came out at 1.47e+06 M⁻¹ s⁻¹. Further, in assay [2], the t1/2 was found to be 1.29 h. Also, in assay [3], the “IC50, 10 nM hCD40L, THP-1 NFkB-luc” value was 0.287 nM; the “Max % activation, no ligand, THP-1 NFkB-luc” value came out at 2%; the “Max % inhibition, 10 nM hCD40L, THP-1 NFkB-luc” value (“Max % inhibition, 10 nM hCD40L” for short) is 98%. Moreover, in assay [4], it took 1.9 nM to reach a half-maximal effect (EC50) and the “MFI at 100 nM” value was 29500 MFI. In assay [5], the “IC50, 900 pM hCD40L, Raji NFkB-luc” value was determined as 1.07e-10 M; the “Max % activation, no ligand, Raji NFkB-luc” value amounted to 13%; the “Max % inhibition, 900 pM hCD40L, Raji NFkB-luc” value (shortened to “Max % inhibition, 900 pM hCD40L”) came out at 82%. In assay [6], the EC50 was 8.4 nM and the “MFI at 100 nM” value was 43100 MFI.

B2: REGN16432 (bispecific antibody, human IgG4 S228P, kappa)
heavy 1: EVQLVESGGGLVQPGGSLRLSCAASGFTFSSYAMNWVRQAPGKGLEWVSIISGTIGKTYYADSVKGRFTISRDNSKNTLYLQMNSLRGEDTAVYYCAKDTERDITGSPFDYWGQGTLVTVSSASTKGPSVFPLAPCSRSTSESTAALGCLVKDYFPEPVTVSWNSGALTSGVHTFPAVLQSSGLYSLSSVVTVPSSSLGTKTYTCNVDHKPSNTKVDKRVESKYGPPCPPCPAPPVAGPSVFLFPPKPKDTLMISRTPEVTCVVVDVSQEDPEVQFNWYVDGVEVHNAKTKPREEQFNSTYRVVSVLTVLHQDWLNGKEYKCKVSNKGLPSSIEKTISKAKGQPREPQVYTLPPSQEEMTKNQVSLTCLVKGFYPSDIAVEWESNGQPENNYKTTPPVLDSDGSFFLYSRLTVDKSRWQEGNVFSCSVMHEALHNHYTQKSLSLSLGK
heavy 2: B1 heavy 2
light: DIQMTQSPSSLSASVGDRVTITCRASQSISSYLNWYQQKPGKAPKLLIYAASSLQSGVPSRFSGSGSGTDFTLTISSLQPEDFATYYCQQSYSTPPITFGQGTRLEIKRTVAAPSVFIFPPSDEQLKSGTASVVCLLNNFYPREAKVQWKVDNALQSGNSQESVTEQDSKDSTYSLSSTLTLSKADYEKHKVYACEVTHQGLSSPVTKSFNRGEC
notes: D1 arm from 30027P2, D2 arm from 21520P2, common light chain; also called CD40xCD40 (30027 x 21520)
On to B2, for which, in assay [1], the “100 nM Ag Bound” value worked out at 56.6 RU, the Kd was 0.163 nM, the koff is 0.000125 s⁻¹ and the association rate constant (kon) amounted to 769000 M⁻¹ s⁻¹. This molecule also registered a t1/2 in assay [1] of 1.54 h. For the same molecule, in assay [2], the “100 nM Ag Bound” value was 56.6 RU, the Kd was 0.163 nM, the koff was determined as 0.000125 s⁻¹ and the kon was 769000 M⁻¹ s⁻¹. The same molecule showed a t1/2 in assay [2] of 1.54 h. Moreover, in assay [3], the “IC50, 10 nM hCD40L, THP-1 NFkB-luc” value was 0.148 nM; the “Max % activation, no ligand, THP-1 NFkB-luc” value came out at 6%; the “Max % inhibition, 10 nM hCD40L” value was 97%. Also, in assay [4], a half-maximal response (EC50) required 1.5 nM and the “MFI at 100 nM” value amounted to 30300 MFI. For the same molecule, in assay [5], the “IC50, 900 pM hCD40L, Raji NFkB-luc” value stood at 1.02e-10 M; the “Max % activation, no ligand, Raji NFkB-luc” value was 5%; the “Max % inhibition, 900 pM hCD40L” value was found to be 68%. In assay [6], the EC50 amounted to 2.1 nM and the “MFI at 100 nM” value was found to be 48700 MFI.

B3: 21519P2 (antibody, human IgG4 S228P, kappa, V domains shown)
VH: QLQLQESGPGLVRPSETLSLTCSVSGASMNTNNYYWGWIRQPPGKGLEWIGSGYYNGNTYYNPSLKSRVTISVDTSKNQFSLKLNSVTAADTAVYYCARQTPPRIIGSPNIWGQGTMVTVSS
VL: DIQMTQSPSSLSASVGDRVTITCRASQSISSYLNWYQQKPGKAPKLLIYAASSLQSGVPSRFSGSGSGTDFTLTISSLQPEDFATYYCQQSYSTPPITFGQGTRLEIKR
notes: parental bivalent anti-CD40 mAb; common light chain; also called H4sH21519P2
For the molecule B3, in assay [1], the “100 nM Ag Bound” value is 99 RU, the Kd came to 8.82 nM, the koff amounted to 0.00339 s⁻¹ and the t1/2 came out at 0.0567 h. Moreover, the “100 nM Ag Bound” value in assay [7] amounted to 1.6 RU. In assay [2], the “100 nM Ag Bound” value was 105 RU, the Kd came to 19.4 nM, the off-rate (koff) turned out to be 0.0123 s⁻¹ and the kon turned out to be 635000 M⁻¹ s⁻¹. This molecule also came in with a t1/2 in assay [2] of 0.015 h. For the same molecule, in assay [3], the “IC50, 10 nM hCD40L, THP-1 NFkB-luc” value came out at 0.276 nM; the “Max % activation, no ligand, THP-1 NFkB-luc” value was 5%; the “Max % inhibition, 10 nM hCD40L” value turned out to be 99%. Besides, in assay [4], the EC50 stood at 1.3 nM and the “MFI at 100 nM” value is 20200 MFI. In addition, in assay [5], the “IC50, 900 pM hCD40L, Raji NFkB-luc” value worked out at 6.05e-11 M; the “Max % activation, no ligand, Raji NFkB-luc” value was 15%; the “Max % inhibition, 900 pM hCD40L” value turned out to be 92%. Besides, in assay [6], the EC50 was 10 nM and the “MFI at 100 nM” value worked out at 11500 MFI.
